Experimental data reported in patent US20200369772A1 (ABBA THERAPEUTICS, published 2020).

T1: human PD-L2 (full-length, on cells) (human, UniProt Q9BQ51 20-273)
T1 chain: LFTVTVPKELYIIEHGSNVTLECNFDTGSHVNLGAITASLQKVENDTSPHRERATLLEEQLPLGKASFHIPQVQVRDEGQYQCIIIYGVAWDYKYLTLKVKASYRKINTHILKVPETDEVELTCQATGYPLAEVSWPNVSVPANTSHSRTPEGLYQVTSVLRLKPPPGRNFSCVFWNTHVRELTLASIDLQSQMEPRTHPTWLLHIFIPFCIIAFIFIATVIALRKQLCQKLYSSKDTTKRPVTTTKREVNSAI

T2: recombinant human PD-L2-Fc-biotin (human, UniProt Q9BQ51 20-220, biotin)
T2 chain: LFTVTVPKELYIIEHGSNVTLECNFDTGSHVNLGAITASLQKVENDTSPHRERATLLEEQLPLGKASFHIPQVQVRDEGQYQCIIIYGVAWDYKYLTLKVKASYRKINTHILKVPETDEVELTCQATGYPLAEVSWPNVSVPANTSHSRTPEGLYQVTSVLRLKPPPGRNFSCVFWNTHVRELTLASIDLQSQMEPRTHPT

T3: mouse PD-L2 (full-length, on cells) (mouse, UniProt Q9WUL5 20-247)
T3 construct: whole, on cells; HEK293 cells stably expressing full-length mouse PD-L2
T3 sequence (looked up): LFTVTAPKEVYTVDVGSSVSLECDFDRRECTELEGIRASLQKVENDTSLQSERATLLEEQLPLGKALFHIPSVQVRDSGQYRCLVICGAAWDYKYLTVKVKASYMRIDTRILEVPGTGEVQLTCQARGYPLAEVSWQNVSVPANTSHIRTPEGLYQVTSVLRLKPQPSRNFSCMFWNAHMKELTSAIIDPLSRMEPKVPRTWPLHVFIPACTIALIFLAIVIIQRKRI

T4: human PD-L2 (full-length, on cells) (human, UniProt Q9BQ51 20-273)
T4 construct: whole, on cells; CHO-K1 cells stably expressing full-length human PD-L2; also endogenous on NCI-H226 and transfected in Jurkat cells; also called hPD-L2; CHO-K1/hPD-L2
T4 sequence (looked up): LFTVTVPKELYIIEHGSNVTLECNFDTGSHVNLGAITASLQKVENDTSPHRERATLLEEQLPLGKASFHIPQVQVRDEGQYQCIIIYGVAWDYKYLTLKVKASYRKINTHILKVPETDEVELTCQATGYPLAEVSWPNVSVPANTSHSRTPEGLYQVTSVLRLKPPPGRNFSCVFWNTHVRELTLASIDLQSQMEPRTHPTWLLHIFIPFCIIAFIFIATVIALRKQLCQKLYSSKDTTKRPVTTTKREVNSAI


Columns and labels:
[1] = biological target: T1, human PD-L2 (full-length, on cells); test: FACS, NCI-H226 cells
How it was run: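 Binding EC50 values come from non-linear fits, made in GraphPad Prism, of percentage of maximal binding plotted against concentration. The underlying binding to endogenous PD-L2 was measured by BD FACSCalibur flow cytometry on 1.5×10⁵ NCI-H226 human lung squamous carcinoma cells, with detection by APC-labelled goat anti-rat IgG (1:2000, 20 min, 4° C).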

[2] = biological target: T2, recombinant human PD-L2-Fc-biotin; test: blocking of hPD-L2 binding to HEK293-hPD-1 cells
How it was run: (§1)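 After 60 min at 4° C in 100 μl, mixtures of serially diluted antibody (0.03 ng/ml-0.5 μg/ml) and recombinant human PD-L2-Fc-biotin (5 ng/ml, 100 pM) were given 30 min at 4° C on 1.5×10⁵ HEK293 cells stably expressing human PD-1. Fluorochrome-conjugated streptavidin and flow cytometry measured the bound ligand against control wells marking 0% and 100% binding. IC50 values came from non-linear curve fitting in GraphPad Prism.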

[3] = biological target: T1, human PD-L2 (full-length, on cells); test: FACS binding to CHO-K1 cells expressing human PD-L2
How it was run: (§2)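 Binding EC50 values were derived in GraphPad Prism by non-linear curve fitting of percentage of maximal binding versus concentration. The binding data came from flow cytometry on a BD FACSCalibur, using CHO-K1 cells stably expressing full-length human PD-L2. Detection used APC-labelled anti-rat IgG or anti-human IgG Fc, according to the antibody format, applied for 20 min at 4° C.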

[4] = biological target: T5, human PD-L1 (full-length, on cells) (human, UniProt Q9NZQ7 19-290); test: FACS on HEK293 cells stably expressing full-length human PD-L1
T5 construct: whole, on cells; HEK293 cells stably expressing full-length human PD-L1
Method: (§3) The ability of anti-PD-L2 antibodies binding to mouse PD-L2, human PD-L1 or cyno PD-L2 was determined by FACS. HEK293 cells stably expressing full-length monkey PD-L2, mouse PD-L2 or human PD-L1 were established, subcloned and verified. For binding assay, 1.5×10⁵ cells in 100 μl of FACSwash buffer were incubated with individual anti-PD-L2 antibodies (0.5 μg/ml) for 30 min. After three times of washing, the cells were re-suspended in FACSwash buffer containing FITC-labelled goat-anti-rat IgG (Thermo Fisher, 1:1000) or APC-labelled goat-anti-ratIgG (Biolegend, Clone Poly4054) at a 1:2000 dilution for 20 min at 4° C., washed three times and subsequently subjected to FACS analysis. FACS data was analysed using FlowJo Software and depicted as histograms including secondary antibody only controls.

[5] = biological target: T3, mouse PD-L2 (full-length, on cells); test: FACS on HEK293 cells stably expressing full-length mouse PD-L2
Method: as §3

[6] = biological target: T1, human PD-L2 (full-length, on cells); test: blocking of hPD-1 binding to CHO-K1/hPD-L2 cells
How it was run: (§4)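 CHO-K1 cells (1.5×10⁵) stably expressing human PD-L2 were incubated with serially diluted antibody (0.25 ng/ml-4 μg/ml) for 30 min at 4° C and washed. They were then incubated with 0.5 μg/ml recombinant human PD-1-mouse Fc for 30 min at 4° C and stained with fluorochrome-conjugated anti-mouse IgG2a (1:200) for 20 min at 4° C. Bound PD-1 was read by flow cytometry, with unspecific IgG wells setting 0% and 100% binding. IC50 came from non-linear curve fitting in GraphPad Prism.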

[7] = biological target: T4, human PD-L2 (full-length, on cells); test: hybridoma supernatant screen on cells expressing human PD-L2
[8] = biological target: T1, human PD-L2 (full-length, on cells); test: FACS blocking of PD-1 binding to CHO-K1/hPD-L2; high antigen concentration
How it was run: as §4

[9] = biological target: T1, human PD-L2 (full-length, on cells); test: FACS, CHO-K1 expressing human PD-L2
How it was run: as §2

[10] = biological target: T2, recombinant human PD-L2-Fc-biotin; test: FACS blocking of hPD-L2 binding to HEK293T-hPD-1; low antigen concentration
How it was run: as §1

[11] = biological target: T4, human PD-L2 (full-length, on cells); test: FACS binding on cells expressing human PD-L2 (per the examples)
[12] = biological target: T1, human PD-L2 (full-length, on cells); test: FACS binding to CHO-K1 cells expressing human PD-L2
How it was run: as §2

[13] = biological target: T3, mouse PD-L2 (full-length, on cells); test: FACS on HEK293T cells expressing mouse PD-L2
Method: (§5) HEK293T cells expressing mouse PD-L2 were incubated with chimeric anti-PD-L2 antibodies. Cells were washed and binding was detected with an FITC-labelled anti-rat IgG Ab (Thermo Fisher Scientific). Flow cytometric analyses were performed using a FACSCalibur flow cytometer (Becton Dickinson). PE-labelled anti-mouse PD-L2 clone TY25 served as positive control. All peaks overlap except for the positive control in FIG. 6F.
as §3

[14] = biological target: T5, human PD-L1 (full-length, on cells); test: FACS on HEK293T cells expressing human PD-L1
Method: as §5, with “human PD-L1” for “mouse PD-L2”, “anti-human PD-L1” for “anti-mouse PD-L2”, “MIH1” for “TY25”, “7F.” for “6F.”
as §3

T5 sequence (Q9NZQ7 19-290): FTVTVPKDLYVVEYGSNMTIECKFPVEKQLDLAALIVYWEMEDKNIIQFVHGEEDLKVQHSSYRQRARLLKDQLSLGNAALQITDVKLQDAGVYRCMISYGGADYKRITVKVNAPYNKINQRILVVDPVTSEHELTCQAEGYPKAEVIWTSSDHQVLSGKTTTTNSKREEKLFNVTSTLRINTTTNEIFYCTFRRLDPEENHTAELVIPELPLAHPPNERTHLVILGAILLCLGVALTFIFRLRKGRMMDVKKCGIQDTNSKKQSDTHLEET

Row | Binder | EC50 [1] [nM] | IC50 [2] [nM] | EC50 [3] [nM] | binding result [4] | binding result [5] | IC50 [6] [nM] | binding result [7] | IC50 [8] [nM] | EC50 [9] [nM] | IC50 [10] [nM] | binding result [11] | EC50 [12] [nM] | binding result [13] | binding result [14]
1 | 8B5-B1 (antibody, V domains shown, Both formats under this entry) VH: EVQLLESGGGLVQPGGSLKLSCAASGFTFSSYAMFWVRQAPGEGLAWVSAITGSGDHTYYADSVKDHFTISRDNSKNTLYLQMNSLKAEDTAVYYCAKDASGNSYGFPYWYFDLWGRGTLVTVSS VL: QSALTQPASVSGSPGQSITISCTGTSSDVAGYNFVSWYQHHPGKTPKLMIYDVTNRPSGVSTRFSGSKSGNTASLTISGLQAEDEADYYCSSFTSATTLVFGGGTKLTVLG | 1.52 | 0.017 | 1.09 | no binding (tested: 0.5 µg/ml) | no binding (tested: 0.5 µg/ml) | 0.94 | binds | 2.02 | 2.18 | 0.0563 |  |  |  | 
2 | 11C11-H5 (antibody, V domains shown, Both formats under this entry) VH: QVQLVESGGGVVQPGRSLRLSCAASGFAFSAYGMHWVRQAPGKGLEWVAISWYDGSNNYHADSVKGRFTISRDSSKNTLYLQMNSLRAEDTAVYYCAKSIGVARHYYYGMDVWGQGTTVTVSS VL: SYELTQPPSVSVSPGQTASITCSGEELGDKYACWYQQKPGQSPVLVIYQDSKRPSGIPERFSGSNSGNAATLTISGTQAMDEADYYCQAWDSITVVFGGGTKLTVLG | 0.131 | 0.012 | 0.81 | no binding (tested: 0.5 µg/ml) | no binding (tested: 0.5 µg/ml) | 0.41 | binds | 0.527 | 0.346 | 0.0149 |  |  |  | 
3 | 19C3-B3 (antibody, V domains shown, Both formats under this entry; also called 19C3-C3) VH: QVQLVESGGGVVQPGRSLRLSCAASGFAFSAYGMHWVRQAPGKGLEWVAISWYDGSNNYHADSVKGRFTISRDSSKNTLYLQMNSLRAEDTAVYYCAKSIGVARHYYYGMDVWGQGTTVTVSS VL: SYELTQPPSVSVSPGQTASITCSGEELGDKYACWYQQKPGQSPLLVIYQDSKRPSGIPERFSGSNSGNAATLTISGTQAMDEADYYCQAWDSITVIFGGGTKLTVLG | 0.102 | 0.013 | 0.44 | no binding (tested: 0.5 µg/ml) | no binding (tested: 0.5 µg/ml) | 0.43 |  | 0.454 | 0.311 | 0.0151 | binds |  |  | 
4 | 10D1-G1 N31Q.N92Q.LC (antibody, V domains shown, Optimized variant of 10D1-G1; also called 10D1-G1 N31Q.N920.LC) VH: QVQLQESGPGLVKPSGTLSLTCAVSGGSISSSYWWSWVRQPPGKGLEWIGEIFHIGSTNYNPSLRSRVTISVVKSKNQFSLNLNSVTAADTAVYFCARVSGGYGYFSGMDVWGQGTTVTVSS VL: DIQMTQSPSSLSASVGDRVTITCRASQGIRQDLGWYQQKPGKAPKRLIYGASSLQSGVPSRFSGSGSGTEFTLTISSLQPEDFATYYCLQHQSYPRTFGQGTKVEIK |  |  |  |  |  |  |  |  |  |  | binds | 0.32 | no binding | no binding
5 | 1A1-C2 (antibody, V domains shown) VH: QVQLQESGPGLVKPSGTLSLTCAVSGGSIGSSYWWTWIRQSPGKGLEWIGEIFHSGPTNYTPSLKSRVTISVDKSKNQFSLQLRSVTAADTAVYYCARTTGTTGFYYGMDVWGQGTTVTVSS VL: EVVLTQSPATLYVTPGERVTLSCRASQSVSSNLAWYQQKPGQAPRLLIYGASTRATGIPARFSGSGSGTEFTLTISSLQSEDFAVYYCQQFNNWPRTFGLGTKVEIT | 0.254 | 0.03 | 0.62 | no binding (tested: 0.5 µg/ml) | no binding (tested: 0.5 µg/ml) | 0.49 | binds | 0.706 | 0.6 | 0.0408 |  |  |  | 
6 | 2C4-E4 (antibody, V domains shown, Both formats under this entry) VH: QVQLVQSGAEVKKPGASVKVSCKASGYTFTGYVMHWVRQAPGQRLEWMGWINADNGITKYSQKFQGRVTITRDTSASTAYMELTNLRSEDTAVYYCARATRGFGEFYFDYWGQGNLVTVSS VL: DIQMTQSPSTLSASVGDRVTITCRASQTISSWLAWYQQKPGKAPNLLIYKASSLESGVPSRFSGSGSGTEFTLTISSLQPDDFATYYCQQYYSYWTFGQGTKVEIK | 0.134 | 0.02 | 0.45 | no binding (tested: 0.5 µg/ml) | no binding (tested: 0.5 µg/ml) | 0.53 |  | 0.612 | 0.485 | 0.0215 | binds |  |  | 
